These results are taken from article PMC7383879, “HSI2/VAL1 and HSL1/VAL2 function redundantly to repress DOG1 expression in Arabidopsis seeds and seedlings”.

This data set deals with T1, HSI2 B3 domain (B3HSI2) (Arabidopsis thaliana, UniProt Q8W4L5 295-396).
T1 sequence: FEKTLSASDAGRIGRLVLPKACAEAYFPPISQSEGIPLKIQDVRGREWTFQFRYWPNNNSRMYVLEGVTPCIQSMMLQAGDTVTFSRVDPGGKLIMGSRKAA
Briefly: EMSA; 10 mM Tris pH 7.9, 30 mM KCl, 0.1 mM EDTA, 1 mM DTT, 0.05% NP-40, 6.5% glycerol, 50 ng/ml (so in the source) poly(dIdC), 50 fmol probe, 20 min at room temperature. The note with it: protein: recombinant; tags: His-Trx (Results); His (Methods, legend); label: 3' biotin; blunt. A general note: Mobility shift assays separate free from complexed probe on a gel.

B1: mRY1 probe (dsDNA)
DNA 1: GTCCTCCACGTAATGGACTACTGCGTTATTTCTTTT
DNA 2: AAAAGAAATAACGCAGTAGTCCATTACGTGGAGGAC
As to B1, the binding result is reported as “no binding”.

B2: RY1 probe (dsDNA)
DNA 1: GTCCTCCACGTAATGCATGCATGCGTTATTTCTTTT
DNA 2: AAAAGAAATAACGCATGCATGCATTACGTGGAGGAC
Regarding B2, the binding result is given as “binds”.
